# Measured values: publication PMC11329518
# Tests used:
# Assay in all cases: fluorescence polarisation
# [1] = biological target: 5'FAM-labeled peptide H3 (1-21)
# [2] = biological target: 5'FAM-labeled peptide H3K9me2
# [3] = biological target: 5'FAM-labeled peptide H3K9me1
binder,measurement,setting,value
GST-ARID1-His (natural protein) MAGWSMVADEDAVDYSKTPKSLDANRSPESVNPESTGFEKKIKELISLFRPLLDSFLAEFCSADGFLPLPAMTGEGRTVDLFNLFLNVTHKGGFDAVSENGSWDEVVQESGLESYDSASAKLIYVKYLDAFGRWLNRVVAGDTDVSSVELSGISDALVARLNGFLSEVKKKYELRKGRPAKELGAELKWFISKTKRRYDKHHVGKESASNDAVKEFQGSKLAERRLEQIMILESVTQECSSPGKRKRECPLETLKWLSDVAKDPCDPSLGIVPDRSEWVSYGSEEPWKQLLLFRASRTNNDSACEKTWQKVQKMHPCLYDDSAGASYNLRERLSYEDYKRGKTGNGSDIGSSDEEDRPCALVGSKFQAKVPEWTGITPESDSKWLGTRIWPLTKEQTKANLLIERDRIGKGRQDPCGCHNPGSIECVKFHITAKRDKLKLELGPAFYMWCFDVMGECTLQYWTDLELKKIKSLMSSPPSLSPAFIHQAKMILPSKSRGKIVSYFYNVTLLQYRASQSRITPHDIDSDTDQIFLRATENENPAPEANTFQKPALLSPNKKRCR,Kd,[1],4.73 µM
same,Kd,[2],40.5 µM
same,Kd,[3],21.2 µM
